Measurements reported in patent US20240122985A1, “ANTIBODIES, COMBINATIONS COMPRISING ANTIBODIES, BIOMARKERS, USES & METHODS” (KYMAB LIMITED, priority 2016, published 2024).
Several values for one entry are separate records, joined by “and”; a condition that tells them apart may be missing. Equal entries are not always repeated.

Assays:
[1] = test system: human T-cells with allogeneic T-cell-depleted cells; experiment: Human mixed lymphocyte reaction (CellTrace Violet); assay type: cell-based; settings: KY1005 150 μg/L, 7 days (FIG. 12H)
Experimental: Human Mixed Lymphocyte Reaction: Human MLRs were performed on unrelated healthy controls. PBMC samples were freshly isolated by Ficoll fractionation, followed by magnetic pan T-cell isolation using the Miltenyi Biotec human pan-T-cell isolation kit. Isolated T-cells were labeled with 2.5 μM CellTrace Violet (Invitrogen) and were co-cultured with irradiated (3500 cGy) on-column T-cell-depleted cell fractions from unrelated allogeneic individuals. MLR cultures were maintained for 7 days at 37° C. in XVivo15 (Lonza) supplemented with 10% FCS, 2 mM glutamine, penicillin-streptomycin and gentamycin and beta-Mercaptoethanol. KY1005 was added to the cultures at day 0 at a dose of 150 μg/L. On Day 7, cells were collected from the cultures, and were stained with antibodies against CD3, CD4, CD8, and then Live/Dead Aqua (Molecular Probes/Invitrogen) was added to exclude dead cells and debris. CellTrace Violet dilution was then measured in CD3^+, Live/Dead Aqua-cells by flow cytometry.

[2] = test system: peripheral blood or T-cell donor chimerism; experiment: Donor chimerism in rhesus HSCT recipients (microsatellite markers); assay type: in vivo, Rhesus macaque; settings: per animal
Experimental: Peripheral blood or T-cell (CD3^+/CD20−) chimerism was determined using divergent donor- and recipient-specific MHC-linked microsatellite markers, by comparing peak heights of the donor- and recipient-specific amplicons (Penedo M C et al, (2005) “Microsateliite typing of the rhesus macaque MHC region”, Imunogenetics 57:198-209).
Flow cytometrically-sorted T-cells (CD3^+/CD20−) were analysed for donor chimerism based on divergent microsatellite markers. Chimerism analysis was performed at the UC Davis veterinary genetics laboratory as previously described (Larsen et al., 2010; Kean et al., 2007).

| Molecule | allo-proliferation of human cells in vitro [1] | Peak peripheral blood donor chimerism ([2]; 2D10 IgG4PE Rhesus GvHD Study) | Whole Blood Chimerism (%) Day 0 ([2]; Day 0) [%] | Whole Blood Chimerism (%) Day 1 ([2]; Day 1) | Whole Blood Chimerism (%) Day 4 ([2]; Day 4) [%] | Whole Blood Chimerism (%) Day 5 ([2]; Day 5) | Whole Blood Chimerism (%) Day 7 ([2]; Day 7) [%] | Whole Blood Chimerism (%) Day 8 ([2]; Day 8) | Whole Blood Chimerism (%) Day 11 ([2]; Day 11) [%] | Whole Blood Chimerism (%) Day 12 ([2]; Day 12) | Whole Blood Chimerism (%) Day 14 ([2]; Day 14) [%] | Whole Blood Chimerism (%) Day 15 ([2]; Day 15) | Whole Blood Chimerism (%) Day 16 ([2]; Day 16) [%] | Whole Blood Chimerism (%) Day 18 ([2]; Day 18) [%] | Whole Blood Chimerism (%) Day 20 ([2]; Day 20) | Whole Blood Chimerism (%) Day 21 ([2]; Day 21) [%] | Whole Blood Chimerism (%) Day 23 ([2]; Day 23) | Whole Blood Chimerism (%) Day 26 ([2]; Day 26) [%] |
| --- | --- | --- | --- | --- | --- | --- | --- | --- | --- | --- | --- | --- | --- | --- | --- | --- | --- | --- |
| KY1005: antibody used for GVHD immunoprophylaxis in NHP, measured by antigen (OX40L) capture assay; not tied to 02D10 in this part | inhibit allo-proliferation of human cells in vitro |  |  |  |  |  |  |  |  |  |  |  |  |  |  |  |  |  |
| 2D10 IgG4PE: fully human anti-human OX40L monoclonal antibody, human IgG4-PE; VH Seq ID No:34, VL Seq ID No:48; 2D10-1 to -4 are stable pools (antibody, V domains shown, human IgG4-PE constant regions; 02D10 - VH Amino Acid Sequence; 02D10 - VL Amino Acid Sequence) VH: EVQLVESGGGLVQPGGSLRLSCAASGFTFSNYAMNWVRQAPGKGLEWVSTISGSGGATRYADSVKGRFTISRDNSRNTVYLQMNSLRVEDTAVFYCTKDRLIMATVRGPYYYGMDVWGQGTTVTVSS VL: DIQMTQSPSSLSASVGDRVTITCRASQSISSYLNWYQQKPGKAPNLLIYAASSLQSGVPSRFSGSGSETDFTLTISSLQPEDFATYYCQQSHSVSFTFGPGTKVDIK |  | 88% and 99% (2×) and 100% | 0 | 16.6% and 5.7% and 22.9% | 6.6 | 91.4% and 66.3% and 31.7% and 68.2% | 27.5 | 98.4% and 97.4% and 66.3% and 82.9% | 90.4 | 98.6% and 99.5% and 82.3% and 92.1% | 81.8 | 99.1% and 99.4% and 88.2% and 97.5% | 79.8 | 19.7 | 99.2% and 98.4% | 0 | 98.6% and 98.8% | 98.7 |
